FireProtDB (doi:10.1016/j.jmb.2004.06.010)
“And” between values parts separate entries of the source, which are not always exact repeats. Equal entries are not always repeated.

B1: Alpha-lactalbumin, P00712 (parent)
chain: MMSFVSLLLVGILFHATQAEQLTKCEVFQKLKDLKDYGGVSLPEWVCTAFHTSGYDTQAIVQNNDSTEYGLFQINNKIWCKDDQNPHSRNICNISCDKFLDDDLTDDIVCAKKILDKVGINYWLAHKALCSEKLDQWLCEKL

Variants of: B1
Conditions: Capra hircus, pH 7, 25 °C, GdnHCl, CD, sodium cacodylate 50 mM, NaCl 50 mM, structure 1HFY, whole UniProt chain shown

MMSFVSLLLVGILFHATQAEQLTKCEVFQKLKDLKDYGGVSLPEWVCTAFHTSGYDTQAIVQNNDSTEYGLFQINNKIWCKDDQNPHSRNICNISCDKFLDDDLTDDIVCAKKILDKVGINFWLAHKALCSEKLDQWLCEKL [Y122F]
denaturant m value: 1.82 kcal/mol/M | denaturant midpoint (higher = more stable): 1.76 M | unfolding free energy: 3.2 kcal/mol | denaturant m value (transition: 3): 1.3 kcal/mol/M and 0.52 kcal/mol/M | denaturant midpoint (higher = more stable) (transition: 3): 1.64 M and 2.07 M | unfolding free energy (transition: 3): 2.13 kcal/mol and 1.08 kcal/mol

MMSFVSLLLVGILFHATQAEQLTKCEVFQKLKDLKDYGGVSLPEWVCTAFHTSGYDTQAIVQNNDSTEYGLFQINNKIWCKDDQNPHSRNICNISCDKFLDDDLTDDIACAKKILDKVGINYWLAHKALCSEKLDQWLCEKL [V109A]
denaturant m value: 2.22 kcal/mol/M | denaturant midpoint (higher = more stable): 2.99 M | unfolding free energy: 6.63 kcal/mol | denaturant m value (transition: 3): 1.64 kcal/mol/M and 0.58 kcal/mol/M | denaturant midpoint (higher = more stable) (transition: 3): 3.5 M and 1.54 M

MMSFVSLLLVGILFHATQAEQLTKCEVFQKLKDLKDYGGVSLPEWVCTAFHTSGYDTQAIVQNNDSTEYGLFQINNKIWCKDDQNPHSRNICNISCDKFLDDDLTDDIVCAKKVLDKVGINYWLAHKALCSEKLDQWLCEKL [I114V]
denaturant m value: 1.92 kcal/mol/M | denaturant midpoint (higher = more stable): 1.92 M | unfolding free energy: 3.69 kcal/mol | denaturant m value (transition: 3): 1.21 kcal/mol/M and 0.71 kcal/mol/M | denaturant midpoint (higher = more stable) (transition: 3): 2.46 M and 1 M

MMSFVSLLLVGILFHATQAEQLTKCEVFQKLKDLKDYGGVSLPEWACTAFHTSGYDTQAIVQNNDSTEYGLFQINNKIWCKDDQNPHSRNICNISCDKFLDDDLTDDIVCAKKILDKVGINYWLAHKALCSEKLDQWLCEKL [V46A]
denaturant m value: 2.7 kcal/mol/M | denaturant midpoint (higher = more stable): 1.81 M | unfolding free energy: 4.88 kcal/mol | denaturant m value (transition: 3): 1.9 kcal/mol/M and 0.8 kcal/mol/M | denaturant midpoint (higher = more stable) (transition: 3): 2.17 M and 0.94 M

MMSFVSLLLVGILFHATQAEQLTKCEVFQKLKDLKDYGGVSLPEWVCTAFHTSGYDTQAIVQNNDSTEYGLFQINNKIWCKDDQNPHSRNICNISCDKFLDDDLTDDIVCAKKILDKVGINYWLAHKALCSEKLDQFLCEKL [W137F]
denaturant m value: 2.12 kcal/mol/M | denaturant midpoint (higher = more stable): 2.49 M | unfolding free energy: 5.27 kcal/mol

MMSFVSLLLVGILFHATQAEQLTKCEVFQKLKDLKDYGGVSLPEWVCTAFHTSGYDTQAIVQNNDSTEYGLFQINNKIWCKDDQNPHSRNICNISCDKFLDDDLTDDIVCAKKIADKVGINYWLAHKALCSEKLDQWLCEKL [L115A]
denaturant m value: 1.72 kcal/mol/M | denaturant midpoint (higher = more stable): 2 M | unfolding free energy: 3.44 kcal/mol | denaturant m value (transition: 3): 1.09 kcal/mol/M and 0.63 kcal/mol/M

MMSFVSLLLVGILFHATQAEQLTKCEAFQKLKDLKDYGGVSLPEWVCTAFHTSGYDTQAIVQNNDSTEYGLFQINNKIWCKDDQNPHSRNICNISCDKFLDDDLTDDIVCAKKILDKVGINYWLAHKALCSEKLDQWLCEKL [V27A]
denaturant m value: 2.1 kcal/mol/M | denaturant midpoint (higher = more stable): 2.26 M | unfolding free energy: 4.74 kcal/mol | denaturant m value (transition: 3): 1.48 kcal/mol/M | denaturant midpoint (higher = more stable) (transition: 3): 2.76 M | unfolding free energy (transition: 3): 4.1 kcal/mol

MMSFVSLLLVGILFHATQAEQLTKCEVFQKLKDLKDYGGVSLPEWVCTAFHTSGYDTQAIVQNNDSTEYGLFQINNKIWCKDDQNPHSRNICNISCDKFLDDDLTDDIVCAKKILDKVGINYWAAHKALCSEKLDQWLCEKL [L124A]
denaturant m value (transition: 3): 2 kcal/mol/M and 0.74 kcal/mol/M | denaturant midpoint (higher = more stable) (transition: 3): 2.55 M and 1.22 M

MMSFVSLLLVGILFHATQAEQLTKCEVFQKLKDLKDYGGVSLPEWVCTAFHTSGYDTQAIVQNNDSTEYGAFQINNKIWCKDDQNPHSRNICNISCDKFLDDDLTDDIVCAKKILDKVGINYWLAHKALCSEKLDQWLCEKL [L71A]
denaturant m value: 2.03 kcal/mol/M | denaturant midpoint (higher = more stable): 1.15 M | unfolding free energy: 2.34 kcal/mol | denaturant m value (transition: 3): 1.52 kcal/mol/M and 0.51 kcal/mol/M | denaturant midpoint (higher = more stable) (transition: 3): 1.16 M and 1.13 M

MMSFVSLLLVGILFHATQAEQLTKCEVFQKLKDLKDYGGVSLPEWVCTAFHTSGYDTQAIVQNNDSTEYGLFQINNKIWCKDDQNPHSRNICNISCDKFLDDDLTDDIVCAKKILDKVGINYWLAHKAACSEKLDQWLCEKL [L129A]
denaturant m value: 2.29 kcal/mol/M | denaturant midpoint (higher = more stable): 2.38 M | unfolding free energy: 5.45 kcal/mol | denaturant m value (transition: 3): 1.69 kcal/mol/M and 0.6 kcal/mol/M

MMSFVSLLLVGILFHATQAEQLTKCEVFQKAKDLKDYGGVSLPEWVCTAFHTSGYDTQAIVQNNDSTEYGLFQINNKIWCKDDQNPHSRNICNISCDKFLDDDLTDDIVCAKKILDKVGINYWLAHKALCSEKLDQWLCEKL [L31A]
denaturant m value: 2.6 kcal/mol/M | denaturant midpoint (higher = more stable): 1.21 M | unfolding free energy: 3.17 kcal/mol | denaturant midpoint (higher = more stable) (transition: 3): 1.37 M and 0.62 M

MMSFVSLLLVGILFHATQAEQLTKCEVFQKLKDLKDYGGVSLPEWVCTAFHTSGYDTQAIVQNNDSTEYGLFQINNKIWCKDDQNPHSRNICNISCDKFLDDDLTDDIVCAAKILDKVGINYWLAHKALCSEKLDQWLCEKL [K112A]
denaturant m value: 2.12 kcal/mol/M | denaturant midpoint (higher = more stable): 1.83 M | unfolding free energy: 3.88 kcal/mol | denaturant m value (transition: 3): 1.51 kcal/mol/M and 0.61 kcal/mol/M | denaturant midpoint (higher = more stable) (transition: 3): 2.07 M and 1.24 M

MMSFVSLLLVGILFHATQAEQLTKCEVFQKLKDLKDYGGVSLPEWVCTAFHTSGYDTQAIVQNNDSTEYGLFQINNKIACKDDQNPHSRNICNISCDKFLDDDLTDDIVCAKKILDKVGINYWLAHKALCSEKLDQWLCEKL [W79A]
denaturant m value: 2.4 kcal/mol/M | denaturant midpoint (higher = more stable): 1.59 M | unfolding free energy: 3.82 kcal/mol | denaturant m value (transition: 3): 1.79 kcal/mol/M and 0.61 kcal/mol/M | denaturant midpoint (higher = more stable) (transition: 3): 1.58 M and 1.65 M | unfolding free energy (transition: 3): 2.82 kcal/mol and 1 kcal/mol

MMSFVSLLLVGILFHATQAEQLTKCEVFQKLKDLKDYGGVSLPEWVCTAFHTSGYDTQAIVQNNDSTEYGLFQVNNKIWCKDDQNPHSRNICNISCDKFLDDDLTDDIVCAKKILDKVGINYWLAHKALCSEKLDQWLCEKL [I74V]
denaturant m value (transition: 3): 0.62 kcal/mol/M and 0.75 kcal/mol/M | denaturant midpoint (higher = more stable) (transition: 3): 2.38 M and 1.04 M | unfolding free energy (transition: 3): 1.48 kcal/mol and 0.78 kcal/mol

MMSFVSLLLVGILFHATQAEQLTKCEVFQKLKDLKDYGGVSLPEWVCTAFHTSGYDTQAIVQNNDSTEYGLFQINNKIWCKDDQNPHSRNICNISCDKFLDDDLTDDVVCAKKILDKVGINYWLAHKALCSEKLDQWLCEKL [I108V]
denaturant m value: 1.95 kcal/mol/M | denaturant midpoint (higher = more stable): 2.33 M | unfolding free energy: 4.54 kcal/mol | denaturant m value (transition: 3): 1.3 kcal/mol/M and 0.65 kcal/mol/M | denaturant midpoint (higher = more stable) (transition: 3): 2.95 M and 1.09 M

MMSFVSLLLVGILFHATQAEQLTKCEVFQKLKDLKDYGGVSLPEWVCTAFHTSGYDTQAIVQNNDSTEYGLFQINNKIWCKDDQNPHSRNICNISCDKFLDDDLTNDIVCAKKILDKVGINYWLAHKALCSEKLDQWLCEKL [D106N]
denaturant m value: 2.18 kcal/mol/M | denaturant midpoint (higher = more stable): 2.07 M | unfolding free energy: 4.51 kcal/mol | denaturant m value (transition: 3): 0.72 kcal/mol/M | denaturant midpoint (higher = more stable) (transition: 3): 1.49 M | unfolding free energy (transition: 3): 1.08 kcal/mol
